In article PMC2561067 (2008):

B1: trypsin (protein)
chain: SSGTSYPDVLKCLKAPILSDSSCKSAYPGQITSNMFCAGYLEGGKDSCQGDSGGPVVCSGKLQGIVSWGSGCAQKNKPGVYTKVCNYVSWIKQTIASN
B2: HWTX-XI (protein)
chain: IDTCRLPSDRGRCKASFERWYFNGRTCAKFIYGGCGGNGNKFPTQEACMKRCAKA

Tests used:
BPTI = BPTI (Bos taurus, UniProt P00974); test: ITC
trypsin = target: B1; test: ITC

| Binder | Kd (BPTI) | Kd (trypsin) |
| --- | --- | --- |
| B1 | 6.57 nM | – |
| B2 | – | 0.23 nM |
